The source of these data is the supplement of paper PMC9170038.

For the data set, the system named is MS2 coat protein. The data set can be described thus: apparent KD of MS2 coat protein; designed switch direction (-1 OFF switch, 1 ON switch): -1; higher = weaker reporter binding. A digest of the protocol:
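RNA switches sharing common flanks were transcribed by stalled E. coli RNA polymerase on Illumina chips. A doubling series of SNAP-549-labelled MS2 coat protein, from 0.7 or 1.5 nM to 3 µM, was applied in Tris-HCl pH 7.5 buffer with KCl, MgCl2, BSA, DTT, tRNA and Tween-20. Each step lasted 0.8–1.5 h at the bottom of the series and 10–20 min at the top. Normalised cluster fluorescence was curve-fitted, giving apparent KD as the per-design median over clusters.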

The mark [1] stands for this setting: input ligand: microRNA oligo, concentration not stated.
[2] abbreviates: Eterna round: R95, input ligand: FMN 200 uM.
The mark [3] stands for this setting: Eterna round: R95, input ligand: microRNA oligo, concentration not stated.
[4] abbreviates: Eterna round: R95, input ligand: none.

With “ACGUACUGAGGAUAUACGAACAUGUCAAAAGACGUGAAGGGACAUGAGGAUCACCCAUGUAGAAGGCAGUACGA [Mat - Exclusion 2 - JL mod - D7] (Eterna round: R96, puzzle: Exclusion 2)”, the “apparent KD of MS2 coat protein” value under setting [1] was determined as 32.7 nM.
With “ACGUGAUAUCUGUCGGUGGACAUGAGGAUCACCCAUGUAAGCUUUUCGCUCGUCUUAUAACCCGGUGACAGACCUUC [Edraatis] (puzzle: Sensor v3, turn-off variant 1)”, the “apparent KD of MS2 coat protein” value under setting [2] came to 33.7 nM, the “apparent KD of MS2 coat protein” value under setting [3] came to 417 nM and the “apparent KD of MS2 coat protein” value under setting [4] amounted to 48 nM.
Taken in the same sequence, the figures for “ACGUGAUAUCUGUCGUUGGACAUGAGGAUCACCCAUGUAAGCUUUUUGCUCGUCUUAUAACCCGGUGACAGACCUUC [Dienlave] (puzzle: Sensor v3, turn-off variant 1)” were 24.7 nM, 236 nM and 23.9 nM.
In the case of “ACGUUUUUUGAGGAUAUGCGACGUUCCUUCGUCGUAGAAGGCGAUACAUGAGGAUCACCCAUGUUUAUGGGCAU [LRO-Ex6-17] (puzzle: Exclusion 6)”, the “apparent KD of MS2 coat protein” value under setting [3] stood at 86.4 nM.
Regarding “ACUAGAUGAGGAUAUGCAUAUUUUCGUGUUCUUCUAGGUUAACAUGAGGAUCACCCAUGUAGAAGGCGUCUAUC [Exclusion 2 - 25] (puzzle: Exclusion 2)”, the “apparent KD of MS2 coat protein” value under setting [3] was 21.6 nM.
On to “ACUAGCUUUUUGCAUAGUAGGUUUGGUGCUUCGUAUGCUACAUGAGGAUCACCCAUGUAUUACUGAUUUCGUCGUUU [JR_SV3TOV2_Sub093] (puzzle: Sensor v3, turn-off variant 2)”, for which the “apparent KD of MS2 coat protein” value under setting [2] turned out to be 24.6 nM, the “apparent KD of MS2 coat protein” value under setting [3] turned out to be 41.1 nM and the “apparent KD of MS2 coat protein” value under setting [4] was 27.3 nM.
Turning to “ACUGGUCAUGAGGAUAUGCGCCAGAACGCCGGCGUAGAAGGCGUGACAUGAGGAUCACCCAUGUCAGUUCGCGA [eternacac ex6r4 sub30] (Eterna round: R97, puzzle: Exclusion 6)”, the “apparent KD of MS2 coat protein” value was 39.1 nM (input ligand: FMN 200 uM) and 39.6 nM (input ligand: none).
Taken in the same sequence, the figures for “ACUGGUCGAGGAUAUACAUGACGUGCUUCGGCACGAGAUCUACAUGAGGAUCACCCAUGUAGAAGGCGACCAGU [E2/11-A2] (Eterna round: R97, puzzle: Exclusion 2)” were 735 nM and 65 nM.
On to “ACUUAUAGAGGAUAUACAGAAUAUUACAUGAGGAUCACCCAUGUUCUUCAAUGUAUAUAUGUAGAAGGCUAAGGAU [Mat - Exclusion 5 - JL Mod - D6] (Eterna round: R97, puzzle: Exclusion 5)”, for which the “apparent KD of MS2 coat protein” value is 299 nM (input ligand: FMN 200 uM) and 89.9 nM (input ligand: none).
Taken in the same sequence, the figures for “ACUUAUAGAGGAUAUACAGAAUAUUACAUGAGGAUCACCCAUGUUCUUCAAUGUAUAUAUGUAGAAGGCUAAGGUU [Mat - Exclusion 5 - JL Mod - D7] (Eterna round: R97, puzzle: Exclusion 5)” were 286 nM and 131 nM.
On the same counts, the results for “ACUUAUAGAGGAUAUACAGUUAAUUACAUGAGGAUCACCCAUGUUCUUCAAUGUAUAUAAGUAGAAGGCUAAGAAA [Mat - Exclusion 5 - Eli Mod - D5] (Eterna round: R97, puzzle: Exclusion 5)” are 58 nM and 13.5 nM.
On the same counts, the results for “ACUUGUGUUGAGGAUAUGCGACGCAACGGUGGAGCAGAAGGCGGCACAUGAGGAUCACCCAUGUCAGUUCGCGA [eternacac ex6r4 sub33] (Eterna round: R97, puzzle: Exclusion 6)” are 86.3 nM and 14.6 nM.
With “AGAAAGCAAGGAUAUACGAGGAGAAGGAGGAAAGUUAAAGGACAUGAGGAUCACCCAUGUAGAAGGUGCGAGAA [JR_Exclu2_Sub042] (puzzle: Exclusion 2)”, the “apparent KD of MS2 coat protein” value is, setting by setting: under setting [2], 33.3 nM; under setting [3], 58.9 nM; under setting [4], 55.8 nM.
On the same counts, the results for “AGAAAGUCAGGAUAUACAUGAGGAUCACCCAUGUAAAGAAAAGAAAGGGAAGGAAGAGGUAGAAGGGACAAGAA [JR_Exclu3_Sub031] (puzzle: Exclusion 3)” are 26.5 nM, 22.7 nM and 23 nM.
Taken in the same sequence, the figures for “AGAAGUAGUACCCGAUCCUACAUGAGGAUCACCCAUGUAGCUAGACGUGCACGCGAUGCUCGUCAGACUACCAGAUG [salish99_TOv1_r3_032] (puzzle: Sensor v3, turn-off variant 1)” were 153 nM, 144 nM and 189 nM.
On the same counts, the results for “AGACAGUCAGGAUAUACAUGAGGAUCACCCAUGUUGAGAUGAGAAAGGGCAGGAAGAGGUAGAAGGGACGAGAG [JR_Exclu3_Sub036] (puzzle: Exclusion 3)” are 31 nM, 24.7 nM and 30.4 nM.
Turning to “AGACCGAUAGCAGGAUAUAGGACGACGAGAGCGCUAGAAGGGCUGACGACAUGAGGAUCACCCAUGUUUUCGUCUCAACAGGCA [Eternabot solution 22] (Eterna round: R96, puzzle: Exclusion NG 1)”, the “apparent KD of MS2 coat protein” value runs as follows: (input ligand: FMN 200 uM) 31 nM; under setting [1], 23.1 nM; (input ligand: none) 29.2 nM.
Turning to “AGACGGUGAGGAUAUAGACGCAAUCACAUGAGGAUCACCCAUGUGACACGUGAUGGCUGGUUAGAAGGCGCGAAUC [Eternabot (L1) Solution 37] (Eterna round: R97, puzzle: Exclusion 5)”, the “apparent KD of MS2 coat protein” value worked out at 17.1 nM (input ligand: FMN 200 uM) and 17.4 nM (input ligand: none).
For the sequence “AGACGUGCAGUGCUCCUCCACAUGAGGAUCACCCAUGUCACUGAGGAUAUCUGCAGGUAACUGCUGGAGAAGGCAGAAAGAAUG [Atrien] (Eterna round: R96, puzzle: Exclusion NG 3)”, the “apparent KD of MS2 coat protein” value amounted to 81.9 nM (input ligand: FMN 200 uM), 22.1 nM under setting [1] and 29.5 nM (input ligand: none).
In the case of “AGACUCAUUGUGAGGAUAUCGGGUCAACGAGACUACGAGAAGGCACAUGAGGAUCACCCAUGUAGCCACGGCUA [Eternabot (L2) Solution 95] (Eterna round: R97, puzzle: Brourd's mod of Exclusion 4)”, the “apparent KD of MS2 coat protein” value was found to be 94.8 nM (input ligand: FMN 200 uM) and 240 nM (input ligand: none).
On the same counts, the results for “AGAGAGUCAGGAUAUGACGAAGAGAACAUGAGGAUCACCCAUGUUGCUUCGUUUUUAUCGUCAGAAGGGACGAACU [JR_Ex5_Sub088] (Eterna round: R97, puzzle: Exclusion 5)” are 13.8 nM and 13.9 nM.
Consider “AGAGUGCUGCGAGGAUAUACAUGAGGAUCACCCAUGUAAUCGUCUGAGGCAAAGCCUCAGACGAAGUAGAAGGCGCAGUACUCA [Mat - Exclusion NG 2 - Mod of JL - D27] (Eterna round: R96, puzzle: Exclusion NG 2)”, for which the “apparent KD of MS2 coat protein” value (input ligand: FMN 200 uM) was 20 nM, the “apparent KD of MS2 coat protein” value under setting [1] came to 12.5 nM and the “apparent KD of MS2 coat protein” value (input ligand: none) was 17.9 nM.
As for “AGAUAACAUGAGGAUCACCCAUGUCAGGAUAUCGACUGAACAGCUUCGGCUGUUCAGUCGAGAAGGGACAAUUA [Brourdxlusion 9 - Jieux - Exclusion 1] (Eterna round: R97, puzzle: Exclusion 1)”, the “apparent KD of MS2 coat protein” value is, setting by setting: (input ligand: FMN 200 uM) 84.1 nM; (input ligand: none) 61.2 nM.
Consider “AGAUCACAUGAGGAUCACCCAUGUCAGGAUAUCGUCACUGGAGCUGCGGCUCCAGUGACGAGAAGGGAUAAUUA [E1/4-A3] (Eterna round: R97, puzzle: Exclusion 1)”, for which the “apparent KD of MS2 coat protein” value reads like this: (input ligand: FMN 200 uM) 92.4 nM; (input ligand: none) 52 nM.
“AGAUCACAUGAGGAUCACCCAUGUCAGGAUAUGAUACUAUGUACUUCGGUACAUAGUAUCAGAAGGGACAUAAA [Ex1-3: 69] (puzzle: Exclusion 1)”: the “apparent KD of MS2 coat protein” value runs as follows: under setting [2], 31.5 nM; under setting [3], 140 nM; under setting [4], 89.2 nM.
As to “AGAUCGUCAGGAUAUACAUGAGGAUCACCCAUGUAUAGUCUAAAUUUGACUAUAAAGUGUAGAAGGGACGAUCG [Exclusion 3 (MOD6 of #1 Marzena11)] (Eterna round: R97, puzzle: Exclusion 3)”, the “apparent KD of MS2 coat protein” value (input ligand: FMN 200 uM) came out at 51.5 nM and the “apparent KD of MS2 coat protein” value (input ligand: none) was 18.1 nM.
Take “AGAUGCUCAAGUCGACAUGAGGAUCACCCAUGUACAGUAAACGAGGAUAUCCGAGAUAAAUAAUAGGAGAAGGCGUGAUCAUGA [Mat - Exclusion NG 3 - Mod of JL - D55] (Eterna round: R96, puzzle: Exclusion NG 3)”: the “apparent KD of MS2 coat protein” value (input ligand: FMN 200 uM) stood at 337 nM, the “apparent KD of MS2 coat protein” value under setting [1] was found to be 66 nM and the “apparent KD of MS2 coat protein” value (input ligand: none) was found to be 86.3 nM.
Taken in the same sequence, the figures for “AGAUGCUCAAGUCGACAUGAGGAUCACCCAUGUACAGUUAAUGAGGAUAUCCGAGAUAAAUAAUAGGAGAAGGCGUGAACAUGA [Ex NG3 #8] (Eterna round: R96, puzzle: Exclusion NG 3)” were 72.4 nM, 50.6 nM and 94.1 nM.
On the same counts, the results for “AGAUGCUCAAGUCGACAUGAGGAUCACCCAUGUACAGUUAAUGAGGAUAUCCGAGAUAAAUAAUAGGAGAAGGCGUGAUCAUGA [Ex NG3 #7] (Eterna round: R96, puzzle: Exclusion NG 3)” are 284 nM, 383 nM and 458 nM.
Regarding “AGAUGGCGAGGAUAUACAUGAGGAUCACCCAUGUGAGAAGAGAAAGUGAGGAAGAAAAGUAGAAGGCGCUGUCA [Mat - Exclusion 3 - Mod of Salish D21] (puzzle: Exclusion 3)”, the “apparent KD of MS2 coat protein” value is, setting by setting: under setting [2], 200 nM; under setting [3], 60.9 nM; under setting [4], 57 nM.
